FireProtDB (doi:10.1021/bi000415x)

B1: Protein P-30, P22069 (parent)
chain: QDWLTFQKKHITNTRDVDCDNIMSTNLFHCKDKNTFIYSRPEPVKAICKGIIASKNVLTTSEFYLSDCNVTSRPCKYKLKKSTNKFCVTCENQAPVHFVGVGSC

Variants of: B1
Conditions: Lithobates pipiens; pH 5; 25 °C; Thermal; DSC; MES 100 mM; reversible: yes; structure 1ONC; whole UniProt chain shown

Variant	unfolding free energy [kcal/mol]
QDWLTFQKKHITNTRDVDCDNILSTNLFHCKDKNTFIYSRPEPVKAICKGIIASKNVLTTSEFYLSDCNVTSRPCKYKLKKSTNKFCVTCENQAPVHFVGVGSC [M23L]	11.5

Same assay, conditions: Lithobates pipiens; pH 5; Thermal; DSC; MES 100 mM; reversible: yes; structure 1ONC; whole UniProt chain shown

Variant	Tm [°C]	change of melting temperature, mutant - wild type (higher = more stable) [°C]	heat capacity change of unfolding [kcal/mol/K]	unfolding enthalpy (calorimetric) [kcal/mol]	unfolding enthalpy (van 't Hoff) [kcal/mol]
QDWLTFQKKHITNTRDVDCDNILSTNLFHCKDKNTFIYSRPEPVKAICKGIIASKNVLTTSEFYLSDCNVTSRPCKYKLKKSTNKFCVTCENQAPVHFVGVGSC [M23L]	82.3	-6	1.43	115	117

Same assay, conditions: Lithobates pipiens; pH 6; 25 °C; GdnHCl; CD; MES 100 mM; reversible: yes; structure 1ONC; whole UniProt chain shown

Variant	ddG of mutation (higher = less stable) [kcal/mol]	denaturant m value [kcal/mol/M]	denaturant midpoint (higher = more stable) [M]	unfolding free energy [kcal/mol]
QDWLTFQKKHITNTRDVDCDNILSTNLFHCKDKNTFIYSRPEPVKAICKGIIASKNVLTTSEFYLSDCNVTSRPCKYKLKKSTNKFCVTCENQAPVHFVGVGSC [M23L]	3.06	3.25	3.4	11

Same assay, conditions: Lithobates pipiens; pH 6; 25 °C; GdnHCl; Fluorescence; MES 100 mM; reversible: yes; structure 1ONC; whole UniProt chain shown

Variant	ddG of mutation (higher = less stable) [kcal/mol]	denaturant m value [kcal/mol/M]	denaturant midpoint (higher = more stable) [M]	unfolding free energy [kcal/mol]
QDWLTFQKKHITNTRDVDCDNILSTNLFHCKDKNTFIYSRPEPVKAICKGIIASKNVLTTSEFYLSDCNVTSRPCKYKLKKSTNKFCVTCENQAPVHFVGVGSC [M23L]	2.63	3.3	3.4	11.2

Same assay, conditions: Lithobates pipiens; pH 6; 25 °C; Thermal; DSC; MES 100 mM; reversible: yes; structure 1ONC; whole UniProt chain shown

Variant	ddG of mutation (higher = less stable) [kcal/mol]	unfolding free energy [kcal/mol]
QDWLTFQKKHITNTRDVDCDNILSTNLFHCKDKNTFIYSRPEPVKAICKGIIASKNVLTTSEFYLSDCNVTSRPCKYKLKKSTNKFCVTCENQAPVHFVGVGSC [M23L]	2.65	11.5

Same assay, conditions: Lithobates pipiens; pH 6; Thermal; DSC; MES 100 mM; reversible: yes; structure 1ONC; whole UniProt chain shown

Variant	Tm [°C]	change of melting temperature, mutant - wild type (higher = more stable) [°C]	heat capacity change of unfolding [kcal/mol/K]	unfolding enthalpy (calorimetric) [kcal/mol]	unfolding enthalpy (van 't Hoff) [kcal/mol]
QDWLTFQKKHITNTRDVDCDNILSTNLFHCKDKNTFIYSRPEPVKAICKGIIASKNVLTTSEFYLSDCNVTSRPCKYKLKKSTNKFCVTCENQAPVHFVGVGSC [M23L]	82.8	-5.9	1.29	115	112

Same assay, conditions: Lithobates pipiens; pH 7; 25 °C; Thermal; DSC; MES 100 mM; reversible: yes; structure 1ONC; whole UniProt chain shown

Variant	ddG of mutation (higher = less stable) [kcal/mol]	unfolding free energy [kcal/mol]
QDWLTFQKKHITNTRDVDCDNILSTNLFHCKDKNTFIYSRPEPVKAICKGIIASKNVLTTSEFYLSDCNVTSRPCKYKLKKSTNKFCVTCENQAPVHFVGVGSC [M23L]	2.22	11.5

Same assay, conditions: Lithobates pipiens; pH 7; Thermal; DSC; MES 100 mM; reversible: yes; structure 1ONC; whole UniProt chain shown

Variant	Tm [°C]	change of melting temperature, mutant - wild type (higher = more stable) [°C]	heat capacity change of unfolding [kcal/mol/K]	unfolding enthalpy (calorimetric) [kcal/mol]	unfolding enthalpy (van 't Hoff) [kcal/mol]
QDWLTFQKKHITNTRDVDCDNILSTNLFHCKDKNTFIYSRPEPVKAICKGIIASKNVLTTSEFYLSDCNVTSRPCKYKLKKSTNKFCVTCENQAPVHFVGVGSC [M23L]	82	-5.8	1.46	115	118

Same assay, conditions: Lithobates pipiens; pH 8; 25 °C; Thermal; DSC; MES 100 mM; reversible: yes; structure 1ONC; whole UniProt chain shown

Variant	ddG of mutation (higher = less stable) [kcal/mol]	unfolding free energy [kcal/mol]
QDWLTFQKKHITNTRDVDCDNILSTNLFHCKDKNTFIYSRPEPVKAICKGIIASKNVLTTSEFYLSDCNVTSRPCKYKLKKSTNKFCVTCENQAPVHFVGVGSC [M23L]	2.39	10.6

Same assay, conditions: Lithobates pipiens; pH 8; Thermal; DSC; MES 100 mM; reversible: yes; structure 1ONC; whole UniProt chain shown

Variant	Tm [°C]	change of melting temperature, mutant - wild type (higher = more stable) [°C]	heat capacity change of unfolding [kcal/mol/K]	unfolding enthalpy (calorimetric) [kcal/mol]	unfolding enthalpy (van 't Hoff) [kcal/mol]
QDWLTFQKKHITNTRDVDCDNILSTNLFHCKDKNTFIYSRPEPVKAICKGIIASKNVLTTSEFYLSDCNVTSRPCKYKLKKSTNKFCVTCENQAPVHFVGVGSC [M23L]	79.1	-6.3	1.36	110	109
